In patent US20200255846A1 (INSTITUTE OF GENETICS AND DEVELOPMENTAL BIOLOGY CHINESE …, published 2020):

Target: nYFP-OsCaM1-1 (rice calmodulin OsCaM1-1 fused with the N-terminal fragment of YFP) (rice, UniProt Q0JNS6 1-149)
Test: BiFC, nYFP-OsCaM1-1 and cYFP-GSE5 coexpressed in N. benthamiana leaves
Description: The coding sequence of GSE5 were amplified by specific primers ycGSE5-F/R, fused with the C-terminal fragment of YFP (cYFP), and then subcloned into the pGWB414 vector (Invitrogen) using in-fusion enzyme (Genebank Biosciences Inc, China). The N-terminal fragment of YFP (nYFP) was amplified from pSY736 using the primers YN-736-F and YN-736-R, fused with the OsCaM1-1 gene, and then subcloned into the pGWB414 vector (Invitrogen) using in-fusion enzyme (Genebank Biosciences Inc, China). nYFP-OsCaM1-1 and cYFP-GSE5 constructs were transformed into Agrobacterium strains GV3101. Transient expression of nYFP-OsCaM1-1 and cYFP-GSE5 in Nicotiana benthamiana leaves and fluorescence observation were conducted as described previously (Wang et al., 2016).

binding result: binds
B1: cYFP-GSE5 (GSE5, GRAIN SIZE ON CHROMOSOME 5, fused with the C-terminal fragment of YFP) (other)
chain: MGKAARWFRNMWGGGRKEQKGEAPASGGKRWSFGKSSRDSAEAAAAAAAAAAEASGGNAAIARAAEAAWLRSVYADTEREQSKHAIAVAAATAAAADAAVAAAQAAVAVVRLTSKGRSAPVLAATVAGDTRSLAAAAVRIQTAFRGFLAKKALRALKALVKLQALVRGYLVRRQAAATLQSMQALVRAQATVRAHRSGAGAAANLPHLHHAPFWPRRSLQERCAGDDTRSEHGVAAYSRRLSASIESSSYGYDRSPKIVEVDTGRPKSRSSSSRRASSPLLLDAAGCASGGEDWCANSMSSPLPCYLPGGAPPPRIAVPTSRHFPDYDWCALEKARPATAQSTPRYAHAPPTPTKSVCGGGGGGGIHSSPLNCPNYMSNTQSFEAKVRSQSAPKQRPETGGAGAGGGRKRVPLSEVVVVESRASLSGVGMQRSCNRVQEAFNFKTAVVGRLDRSSESGENDRHAFLQRRW
notes: BiFC construct in pGWB414, transiently expressed inside Nicotiana benthamiana leaf cells (not on the cell surface); not shown: C-terminal fragment of YFP (cYFP)
